The values below come from PMC2849990 (Structure (London, England : 1993), 2008).

One may read the Kd as the constant that tells how readily two partners part at equilibrium. Read a high Kd as weaker binding.

Assay [1] addresses T1, human pyruvate dehydrogenase (E1p) component, heterotetramer alpha2beta2 (Homo sapiens, UniProt P08559+P11177, P08559:Y118F).
T1 sequence (P08559 30-390 Y118F): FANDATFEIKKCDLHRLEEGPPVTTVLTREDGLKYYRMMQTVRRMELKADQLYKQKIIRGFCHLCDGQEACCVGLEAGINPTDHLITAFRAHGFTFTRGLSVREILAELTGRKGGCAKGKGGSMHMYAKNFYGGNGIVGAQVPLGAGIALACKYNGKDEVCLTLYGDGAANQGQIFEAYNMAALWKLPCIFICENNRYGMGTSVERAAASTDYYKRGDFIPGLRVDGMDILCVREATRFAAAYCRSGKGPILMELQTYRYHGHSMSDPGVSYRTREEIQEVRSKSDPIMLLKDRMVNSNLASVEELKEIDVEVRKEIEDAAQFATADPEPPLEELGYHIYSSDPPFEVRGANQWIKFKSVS
T1 sequence (P11177 31-359): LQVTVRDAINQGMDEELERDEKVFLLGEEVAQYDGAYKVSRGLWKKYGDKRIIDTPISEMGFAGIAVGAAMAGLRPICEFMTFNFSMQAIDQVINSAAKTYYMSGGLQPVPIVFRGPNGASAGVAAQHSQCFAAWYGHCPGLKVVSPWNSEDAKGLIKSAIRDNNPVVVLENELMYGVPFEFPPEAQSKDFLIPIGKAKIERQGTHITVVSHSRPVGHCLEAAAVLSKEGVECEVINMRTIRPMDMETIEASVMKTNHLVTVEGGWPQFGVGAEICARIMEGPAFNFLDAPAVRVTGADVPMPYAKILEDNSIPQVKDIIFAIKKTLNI
In words: tryptophan fluorescence quenching. The assay is classed as binding.

Assay [2] addresses T2, human pyruvate dehydrogenase (E1p) component, heterotetramer alpha2beta2 (Homo sapiens, UniProt P08559+P11177).
T2 sequence (P08559 30-390): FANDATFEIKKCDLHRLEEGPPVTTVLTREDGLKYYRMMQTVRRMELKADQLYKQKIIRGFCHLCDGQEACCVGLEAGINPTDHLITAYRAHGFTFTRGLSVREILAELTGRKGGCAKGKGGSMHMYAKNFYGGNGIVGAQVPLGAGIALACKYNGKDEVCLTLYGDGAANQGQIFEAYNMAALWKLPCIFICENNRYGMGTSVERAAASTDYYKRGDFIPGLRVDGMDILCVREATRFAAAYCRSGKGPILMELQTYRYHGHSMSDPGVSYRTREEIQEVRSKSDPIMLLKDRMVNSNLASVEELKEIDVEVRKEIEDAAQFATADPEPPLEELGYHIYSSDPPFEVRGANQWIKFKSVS
T2 sequence (P11177 31-359): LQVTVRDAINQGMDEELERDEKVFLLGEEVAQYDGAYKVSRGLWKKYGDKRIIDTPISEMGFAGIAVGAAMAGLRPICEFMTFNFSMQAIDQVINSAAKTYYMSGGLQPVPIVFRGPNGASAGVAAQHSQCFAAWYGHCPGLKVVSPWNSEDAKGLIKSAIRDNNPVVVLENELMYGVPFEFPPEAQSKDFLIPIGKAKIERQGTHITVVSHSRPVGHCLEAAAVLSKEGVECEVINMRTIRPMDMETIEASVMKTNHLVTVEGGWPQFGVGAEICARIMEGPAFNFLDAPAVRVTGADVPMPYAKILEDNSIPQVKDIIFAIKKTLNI
In words: tryptophan fluorescence quenching. In kind it is binding.

Assay [3] addresses T3, E1p-α subunit of wild-type human E1p (human, UniProt P08559 30-390).
T3 sequence: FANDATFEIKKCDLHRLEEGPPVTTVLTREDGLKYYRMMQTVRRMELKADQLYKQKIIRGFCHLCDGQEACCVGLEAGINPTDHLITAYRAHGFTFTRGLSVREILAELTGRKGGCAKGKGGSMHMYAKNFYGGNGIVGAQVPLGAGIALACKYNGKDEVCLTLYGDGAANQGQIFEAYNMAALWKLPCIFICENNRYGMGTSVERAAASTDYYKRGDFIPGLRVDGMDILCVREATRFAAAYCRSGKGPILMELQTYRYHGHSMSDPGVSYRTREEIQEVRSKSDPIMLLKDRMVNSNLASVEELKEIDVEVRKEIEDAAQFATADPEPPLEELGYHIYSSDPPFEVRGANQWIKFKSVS
The assay is described as follows: crystal structure.

Assay [4] concerns the target T4, E1p-α subunit of Y89F-α mutant E1p (human, UniProt P08559 30-390, Y89F-α).
T4 sequence: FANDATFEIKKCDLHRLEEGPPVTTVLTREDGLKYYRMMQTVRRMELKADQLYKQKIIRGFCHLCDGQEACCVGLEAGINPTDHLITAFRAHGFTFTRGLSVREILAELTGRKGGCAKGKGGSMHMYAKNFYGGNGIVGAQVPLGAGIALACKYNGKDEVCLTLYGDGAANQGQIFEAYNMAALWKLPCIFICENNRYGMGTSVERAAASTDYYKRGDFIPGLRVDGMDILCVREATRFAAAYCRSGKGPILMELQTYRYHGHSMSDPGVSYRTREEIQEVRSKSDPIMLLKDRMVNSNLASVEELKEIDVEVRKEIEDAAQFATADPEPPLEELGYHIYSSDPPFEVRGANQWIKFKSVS
The assay is described as follows: crystal structure.

Assay [5] deals with T5, E1p-α subunit of S1-E1p (S271A-α, S203A-α) (human, UniProt P08559 30-390, S271A-α | S203A-α).
T5 sequence: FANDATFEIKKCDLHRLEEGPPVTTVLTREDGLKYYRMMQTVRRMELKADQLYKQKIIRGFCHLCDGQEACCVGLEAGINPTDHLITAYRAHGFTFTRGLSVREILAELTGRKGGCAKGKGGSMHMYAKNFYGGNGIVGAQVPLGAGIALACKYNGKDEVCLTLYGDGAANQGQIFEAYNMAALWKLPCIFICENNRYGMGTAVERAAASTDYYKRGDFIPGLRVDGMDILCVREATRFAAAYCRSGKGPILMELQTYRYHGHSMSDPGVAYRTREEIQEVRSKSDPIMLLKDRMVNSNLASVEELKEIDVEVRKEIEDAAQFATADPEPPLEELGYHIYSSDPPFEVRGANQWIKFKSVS
In words: crystal structure.

In the case of `Cc1ncc(C[n+]2csc(CCO[P@](=O)(O)OP(=O)(O)O)c2C)c(N)n1` [ThDP], the dissociation constant Kd was determined as 50.2 ± 4.6 µM in assay [1] and 0.11 ± 0.01 µM in assay [2].

B1: E1p-β subunit of human E1p (natural protein)
chain: LQVTVRDAINQGMDEELERDEKVFLLGEEVAQYDGAYKVSRGLWKKYGDKRIIDTPISEMGFAGIAVGAAMAGLRPICEFMTFNFSMQAIDQVINSAAKTYYMSGGLQPVPIVFRGPNGASAGVAAQHSQCFAAWYGHCPGLKVVSPWNSEDAKGLIKSAIRDNNPVVVLENELMYGVPFEFPPEAQSKDFLIPIGKAKIERQGTHITVVSHSRPVGHCLEAAAVLSKEGVECEVINMRTIRPMDMETIEASVMKTNHLVTVEGGWPQFGVGAEICARIMEGPAFNFLDAPAVRVTGADVPMPYAKILEDNSIPQVKDIIFAIKKTLNI
As to B1, the binding result in assay [3], in assay [4] and in assay [5] was “binds” each time.
